# Data: publication PMC7321842 (Nature, 2020)
# Changes are numbered by the printed parent chain.
# T1: full-length, human CHMP7 (human, UniProt Q8WUX9 1-453)
# T1 sequence (looked up): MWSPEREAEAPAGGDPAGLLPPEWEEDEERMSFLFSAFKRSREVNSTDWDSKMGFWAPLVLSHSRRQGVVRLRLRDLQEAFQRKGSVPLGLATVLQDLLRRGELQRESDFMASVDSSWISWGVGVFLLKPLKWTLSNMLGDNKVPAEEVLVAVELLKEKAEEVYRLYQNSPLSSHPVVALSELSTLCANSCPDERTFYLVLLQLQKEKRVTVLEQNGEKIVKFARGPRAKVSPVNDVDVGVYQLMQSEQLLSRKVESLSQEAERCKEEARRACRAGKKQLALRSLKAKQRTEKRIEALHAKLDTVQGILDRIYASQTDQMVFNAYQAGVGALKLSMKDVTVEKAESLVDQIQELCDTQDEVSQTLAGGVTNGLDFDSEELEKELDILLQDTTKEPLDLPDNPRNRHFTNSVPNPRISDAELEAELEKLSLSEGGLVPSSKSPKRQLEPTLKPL
# T2: CHMP7_(R270E+I312E) (human, UniProt Q8WUX9 1-453, R270E | I312E)
# T2 sequence (looked up): T1 sequence (looked up) with R270E, I312E
# T3: CHMP7_(R270E+V339D) (human, UniProt Q8WUX9 1-453, R270E | V339D)
# T3 sequence (looked up): T1 sequence (looked up) with R270E, V339D
# T4: CHMP7_(I312E+V339D) (human, UniProt Q8WUX9 1-453, I312E | V339D)
# T4 sequence (looked up): T1 sequence (looked up) with I312E, V339D
# B1: WH domain of LEM2 (LEM2WH; AA:395–503) (domain or fragment, human, UniProt Q8NC56 395-503, looked up)
# chain: ILLKYRWRKLEEEEQAMYEMVKKIIDVVQDHYVDWEQDMERYPYVGILHVRDSLIPPQSRRRMKRVWDRAVEFLASNESRIQTESHRVAGEDMLVWRWTKPSSFSDSER
# B2: CHMP7_(ESCRT-III) (AA:229–453) (domain or fragment, human, UniProt Q8WUX9 229-453, looked up)
# chain: AKVSPVNDVDVGVYQLMQSEQLLSRKVESLSQEAERCKEEARRACRAGKKQLALRSLKAKQRTEKRIEALHAKLDTVQGILDRIYASQTDQMVFNAYQAGVGALKLSMKDVTVEKAESLVDQIQELCDTQDEVSQTLAGGVTNGLDFDSEELEKELDILLQDTTKEPLDLPDNPRNRHFTNSVPNPRISDAELEAELEKLSLSEGGLVPSSKSPKRQLEPTLKPL
# Experiments:
# full-length, human CHMP7 = target: T1, full-length, human CHMP7; assay: co-sedimentation
# CHMP7_(R270E+I312E) = target: T2, CHMP7_(R270E+I312E); assay: co-sedimentation
# CHMP7_(R270E+V339D) = target: T3, CHMP7_(R270E+V339D); assay: co-sedimentation
# CHMP7_(I312E+V339D) = target: T4, CHMP7_(I312E+V339D); assay: co-sedimentation
# [1] = target: the molecule itself; assay: negative stain electron microscopy of polymers
binder,measurement,setting,value
B1,stoichiometry N,"full-length, human CHMP7",1
same,binding result,CHMP7_(R270E+I312E),binds
same,binding result,CHMP7_(R270E+V339D),binds
same,binding result,CHMP7_(I312E+V339D),binds
B2,binding result,[1],binds
